Target: TAP-tagged ISWI (D. melanogaster) (UniProt Q24368)
Test: pull-down; tandem affinity purification of TAP-tagged ISWI from larval nuclear extracts (IPP150 buffer): IgG agarose, TEV cleavage, calmodulin resin, SDS elution; Western blot for ISWI, Sin3A, Rpd3; untagged extracts as control

Chain of UniProt Q24368 (Q24368 whole entry): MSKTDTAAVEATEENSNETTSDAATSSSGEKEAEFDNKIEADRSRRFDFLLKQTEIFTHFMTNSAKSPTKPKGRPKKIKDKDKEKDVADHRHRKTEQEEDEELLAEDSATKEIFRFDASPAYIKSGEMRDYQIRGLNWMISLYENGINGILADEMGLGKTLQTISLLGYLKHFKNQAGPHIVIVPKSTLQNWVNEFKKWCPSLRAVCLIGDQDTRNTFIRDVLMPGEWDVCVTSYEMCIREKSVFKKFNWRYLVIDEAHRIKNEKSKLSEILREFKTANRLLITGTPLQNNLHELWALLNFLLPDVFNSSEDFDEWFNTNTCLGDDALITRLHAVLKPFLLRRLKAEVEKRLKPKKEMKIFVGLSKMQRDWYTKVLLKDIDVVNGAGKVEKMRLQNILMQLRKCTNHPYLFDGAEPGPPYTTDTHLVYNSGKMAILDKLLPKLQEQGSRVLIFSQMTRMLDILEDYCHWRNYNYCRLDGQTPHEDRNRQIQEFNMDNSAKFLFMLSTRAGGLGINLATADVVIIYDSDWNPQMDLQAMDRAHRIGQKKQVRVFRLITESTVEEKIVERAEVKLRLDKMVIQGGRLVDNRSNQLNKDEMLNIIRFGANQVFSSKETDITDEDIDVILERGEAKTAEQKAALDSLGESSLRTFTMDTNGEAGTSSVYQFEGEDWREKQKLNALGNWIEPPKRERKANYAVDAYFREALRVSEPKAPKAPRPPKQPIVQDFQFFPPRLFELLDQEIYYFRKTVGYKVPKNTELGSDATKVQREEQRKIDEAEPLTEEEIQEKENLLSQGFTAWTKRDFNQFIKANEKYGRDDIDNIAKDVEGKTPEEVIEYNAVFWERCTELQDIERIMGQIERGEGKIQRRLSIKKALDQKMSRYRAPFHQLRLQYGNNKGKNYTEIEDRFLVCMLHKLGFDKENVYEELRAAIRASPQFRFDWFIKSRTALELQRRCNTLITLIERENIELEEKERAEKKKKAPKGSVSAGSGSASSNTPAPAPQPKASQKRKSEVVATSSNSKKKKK

- percent of the total protein in larval nuclear extract associated with ISWI (densitometry): 15%
Substance: Sin3A (natural protein)
